# Assay results from patent publication US11827911B2, “Chimeric bacteriophage lysin with activity against Staphylococci bacteria” (priority 2008, dated 2023).
# B1: ClyS: chimeric lysin: Twort lysin endopeptidase domain attached to the phiNM3 CWT domain, 280 amino acid residues (protein)
# chain: METLKQAESYIKSKVNTGTDFDGLYGYQCMDLAVDYIYHVTDGKIRMWGNAKDAINNSFGGTATVYKNYPAFRPKYGDVVVWTTGNFATYGHIAIVTNPDPYGDLQYVTVLEQNWNGNGIYKTELATIRTHDYTGITHFIRPNFATESSVKKKDTKKKPKPSNRDGLNKDKIVYDRTNINYNMVLQGKSASKITVGSKAPYNLKWSKGAYFNAKIDGLGATSATRYGDNRTNYRFDVGQAVYAPGTLIYVFEIIDGWCRIYWNNHNEWIWHERLIVKEVF
# modifications: Chimeric of Staphylococcus aureus bacteriophage Twort domain and Staphylococcus aureus phage phiNM3 CWT domain
# notes: chimeric lysin: Twort lysin endopeptidase domain attached to the phiNM3 CWT domain, 280 amino acid residues
# Columns and labels:
# [1] = Solubility of expressed lysins and chimeras
# Description: In another embodiment, the lysin is a chimeric protein that comprises an endopeptidase domain of the S. aureus Twort lysin upstream of the phiNM3 CWT domain (SEQ ID NO:1). The chimeric polypeptide is preferably sufficiently soluble in phosphate buffered saline (PBS). Preferred levels of solubility in PBS for the chimeric lysins is at least about 1 mg/ml and more preferably at least about 3 mg/mL. in PBS. […] One example of such a lysin is provided in SEQ ID NO:2 (AD127), shown in FIG. 5A and consisting of the Twort lysin endopeptidase domain attached to the phiNM3 CWT domain (SEQ ID NO:1). The isolated polypeptide of SEQ ID NO:2 (AD 127) was constructed by engineering S. epidermidis autolysin amidase and Twort lysin endopeptidase domains upstream of phiNM3 CWT domain, respectively.
# Traditionally, Bacillus-specific lysins are expressed at high levels and are soluble in E. coli. Therefore, our first attempt was to engineer a 16-amino acid peptide (4) that is conserved in several S. aureus-specific lysins (Lu J Z, Fujiwara T, Komatsuzawa H, Sugai M, Sakon J. 2006. Cell wall-targeting domain of glycylglycine endopeptidase distinguishes among peptidoglycan cross-bridges. (Lue et al. (2006) J. Biol. Chem. 281(1):549-58) The catalytic domain of the Bacillus-specific lysin PlyB was used to generate chimera AD 103 (FIG. 4) (SEQ ID NO: 13). The chimeras were tested for expression, solubility and activity. Then the entire C-terminal CWT domain of PlyB (6) was replaced by the putative C-terminal domain of S. aureus phage Twort lysin (8) to obtain AD 105 (SEQ ID NO: 14). […] Since the lysostaphin catalytic domain […] (10) in AD 112 was of bacterial origin, we attempted to engineer a phage-derived catalytic domain upstream of the lysostaphin CWT. For this, the endopeptidase domain in Twort lysin (14) was used to construct chimera AD 119 (SEQ ID NO:3).
# staphylococci = assay: Lytic activity of chimera lysates against staphylococci; assay type: cell-based; details: qualitative
# S. aureus 8325-4 cells = assay: Spectrophotometric loss of turbidity (OD600) lytic assay; assay type: cell-based, Staphylococcus aureus
# Description: (§1) The unit activity of ClyS was defined by measuring the spectrophotometric loss of turbidity, indicative of cell lysis, of S. aureus 8325-4 cells upon adding serial dilutions of ClyS. In our assays, 5 micrograms of ClyS corresponded to 1 U of lytic activity. When 50 U of ClyS was added to exponentially growing 8325-4 cells the OD600 dropped to baseline within 5 min (FIG. 7). To confirm that the observed cell lysis corresponds to cell death, staphylococcal viability was determined by enumerating aliquots from the lytic reaction at various time points.
# ClyS activity was measured as previously described (Daniel et al, 2001), with some modifications. Briefly, S. aureus strain 8325-4 was grown to an OD600 of 0.25-0.3, centrifuged, and resuspended in PB to a final OD600 of 0.8-1.0. Two-fold serial dilutions of purified ClyS […] were added to 100 μl of bacterial suspension in 96-well plates (Costar) and the decrease in OD600 was monitored by a Spectramax Plus 384 spectrophotometer (Molecular Devices) over 30 min at 37° C. ClyS activity in units per milliliter was defined as the reciprocal of the highest dilution of lysin that decreased the absorbance by 50% in 15 minutes.
# S. aureus strain 8325-4 [2] = assay: Viability assay (colony-forming units); assay type: cell-based, Staphylococcus aureus; details: 50 U of ClyS, in 30 min
# Description: as §1
# (§2) The viability assay of ClyS was tested as previously described (Nelson et al, 2001). Briefly, log phase cultures of S. aureus strain 8325-4 were resuspended in PB to OD600 of 0.8-1.0. 50 U of ClyS or the corresponding volume of PB was added to bacterial cells and aliquots were removed, serially diluted, and plated at 1, 5, 10, 30, and 60 minutes to assess the viability of the treated and control cells. All experiments were performed in triplicate. The activity of ClyS on various bacterial strains was tested as described previously (Schuch et al, 2002). Briefly, log phase bacterial cells were treated with 50 U of ClyS at 37° C. for 15 minutes. The samples were serially diluted and plated. Control experiments with the addition of phosphate buffer (pH 7.0) were performed under the same conditions.
# S. aureus strain 8325-4 [3] = assay: ClyS activity as a function of pH and salt concentration; assay type: cell-based, Staphylococcus aureus; details: 50 U, 15 minutes
# Description: The effect of pH on ClyS activity was determined as previously described using the universal buffer system pH 4-10 (Yoong et al). Briefly, log phase 8325-4 cells were resuspended in the universal buffer system and incubated with 50 U of ClyS for 15 minutes. The final pH of each reaction was checked by pH paper. The samples were serially diluted and plated. In controls, PB replaced ClyS.
# Similarly the effect of salt concentration on the lytic activity of ClyS was determined by incubating 50 U of ClyS with log phase 8325-4 cells in PB containing NaCl at a final concentration of 25-500 mM for 15 minutes. The samples were serially diluted and plated to determine the viability counts.
# [4] = test system: S. aureus strains (MSSA and MRSA); assay: Muralytic activity on bacterial strains, Set I; assay type: cell-based, Staphylococcus aureus; details: 50 U of ClyS, 15 minutes
# Description: (§3) Muralytic activity of ClyS was tested on a number of bacterial strains representing a variety of species which were divided into sets (Table 1 and FIG. 10). Set I consisted of S. aureus strains including methicillin-sensitive S. aureus (MSSA) and MRSA. ClyS was active against MSSA and MRSA although differences were observed between S. aureus strains. Set II consisted of different species of staphylococci including S. epidermidis, S. simulans and S. sciuri. […] Set III consisted of a mix of Gram-positive and Gram-negative bacteria including representatives of group A, B, C and E streptococci, oral streptococcal species including S. gordonli, and S. salivarius, as well as S. uberis, Bacillus cereus, Pseudomonas aeruginosa and E. coli.
# as §2, with “The samples were serially diluted and plated. Control experiments with the addition of phosphate buffer (pH 7.0) were performed under the same conditions.” left out
# [5] = test system: group A, B, C and E streptococci, S. gordonli, S. salivarius, S. uberis, Bacillus cereus, Pseudomonas aeruginosa and E. coli; assay: Muralytic activity on bacterial strains, Set III; assay type: cell-based, mix of Gram-positive and Gram-negative bacteria; details: 50 U of ClyS, 15 minutes
# Description: as §3
# as §2, with “The samples were serially diluted and plated. Control experiments with the addition of phosphate buffer (pH 7.0) were performed under the same conditions.” left out
# MRSA strain COL = assay: Checkerboard broth-microdilution assay; assay type: cell-based, Staphylococcus aureus
# Description: (§4) We used the checkerboard broth-microdilution assay to test the interaction of ClyS with vancomycin and with oxacillin. […] Isobolograms for ClyS with vancomycin and ClyS with oxacillin was plotted by transcribing the enzyme concentrations along the inhibitory line on the microtiter plate in an x/y plot.
# VISA strain Mu50 = assay: Checkerboard broth-microdilution assay; assay type: cell-based, Staphylococcus aureus; details: VISA strain Mu50
# Description: as §4
molecule,measurement,setting,value
B1,solubility,[1],very high
same,lytic activity against staphylococci,staphylococci,active
same,time for OD600 to drop to baseline,"S. aureus 8325-4 cells; 50 U of ClyS, exponentially growing 8325-4 cells",≤ 5 min
same,amount corresponding to 1 U of lytic activity,S. aureus 8325-4 cells; unit = reciprocal of highest dilution that decreased absorbance by 50% in 15 minutes,5 micrograms
same,decrease in viability,S. aureus strain 8325-4 [2],approximately 3 logs
same,activity at physiological pH,S. aureus strain 8325-4 [3],partial yet significant activity
same,activity at physiological salt concentrations,S. aureus strain 8325-4 [3],functioned well
same,NaCl concentration above which activity deteriorated,S. aureus strain 8325-4 [3]; 25-500 mM NaCl in PB,above 400 mM
same,muralytic activity against MRSA,[4],active
same,muralytic activity against MSSA,[4],active
same,muralytic activity against Set III organisms,[5],no activity
same,MIC,MRSA strain COL,8 U/ml
same,MIC,VISA strain Mu50,6 U/ml
